Kd data for 1 molecule are collected here from patent publication US20220332804A1 (CSL INNOVATION, published 2022).

Experiment in all cases: SPR, antibody captured, C2 as analyte;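 further: biacore SPR at 37 °C, anti-C2 mAbs captured via goat anti-human IgG on CM5 chips, double-referenced sensorgrams fit to a 1:1 kinetic or steady-state model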
(SPR reads the build-up and loss of mass on a sensor chip optically.)

One assay deals with T1, human C2 N327A (human, UniProt P06681 21-752).
T1 sequence: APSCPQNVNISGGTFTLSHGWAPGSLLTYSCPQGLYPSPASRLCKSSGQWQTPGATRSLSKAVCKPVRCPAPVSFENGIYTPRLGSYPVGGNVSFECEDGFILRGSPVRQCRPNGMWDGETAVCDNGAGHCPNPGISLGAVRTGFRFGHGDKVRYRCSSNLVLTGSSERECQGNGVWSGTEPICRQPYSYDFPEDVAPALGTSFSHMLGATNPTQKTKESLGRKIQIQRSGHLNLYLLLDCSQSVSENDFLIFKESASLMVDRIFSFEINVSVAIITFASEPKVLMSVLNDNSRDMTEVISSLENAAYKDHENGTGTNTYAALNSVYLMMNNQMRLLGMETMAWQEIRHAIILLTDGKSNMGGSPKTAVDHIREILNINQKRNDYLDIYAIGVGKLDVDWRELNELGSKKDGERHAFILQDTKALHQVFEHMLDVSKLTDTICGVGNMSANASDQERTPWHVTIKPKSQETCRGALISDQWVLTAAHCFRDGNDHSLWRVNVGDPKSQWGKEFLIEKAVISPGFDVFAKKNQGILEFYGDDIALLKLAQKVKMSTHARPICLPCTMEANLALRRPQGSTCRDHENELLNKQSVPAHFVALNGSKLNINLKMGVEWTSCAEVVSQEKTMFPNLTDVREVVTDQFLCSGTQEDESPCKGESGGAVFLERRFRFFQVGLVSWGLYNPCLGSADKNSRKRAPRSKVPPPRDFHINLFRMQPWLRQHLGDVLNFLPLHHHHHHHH

The next assay deals with T2, human C2 M316A (human, UniProt P06681 21-752).
T2 sequence: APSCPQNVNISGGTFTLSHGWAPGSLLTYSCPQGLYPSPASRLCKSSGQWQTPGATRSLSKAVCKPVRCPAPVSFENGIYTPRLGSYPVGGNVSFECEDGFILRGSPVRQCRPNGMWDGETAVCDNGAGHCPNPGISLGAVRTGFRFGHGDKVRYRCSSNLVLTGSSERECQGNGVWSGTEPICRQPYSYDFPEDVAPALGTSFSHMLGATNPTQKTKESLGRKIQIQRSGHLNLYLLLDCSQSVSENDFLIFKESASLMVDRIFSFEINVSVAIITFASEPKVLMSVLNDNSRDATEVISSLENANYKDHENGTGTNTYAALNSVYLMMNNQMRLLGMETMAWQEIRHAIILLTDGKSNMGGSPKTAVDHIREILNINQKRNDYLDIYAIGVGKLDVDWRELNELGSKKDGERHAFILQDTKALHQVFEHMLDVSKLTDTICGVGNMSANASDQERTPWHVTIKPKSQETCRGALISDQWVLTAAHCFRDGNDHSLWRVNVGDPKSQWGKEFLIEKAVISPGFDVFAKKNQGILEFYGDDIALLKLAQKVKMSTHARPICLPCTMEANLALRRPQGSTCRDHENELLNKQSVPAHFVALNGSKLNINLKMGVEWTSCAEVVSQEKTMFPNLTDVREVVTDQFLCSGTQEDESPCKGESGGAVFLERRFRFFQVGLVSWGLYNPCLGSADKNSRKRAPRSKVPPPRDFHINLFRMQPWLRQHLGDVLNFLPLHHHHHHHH

The target in the next assay is T3, human C2 F437A (human, UniProt P06681 21-752).
T3 sequence: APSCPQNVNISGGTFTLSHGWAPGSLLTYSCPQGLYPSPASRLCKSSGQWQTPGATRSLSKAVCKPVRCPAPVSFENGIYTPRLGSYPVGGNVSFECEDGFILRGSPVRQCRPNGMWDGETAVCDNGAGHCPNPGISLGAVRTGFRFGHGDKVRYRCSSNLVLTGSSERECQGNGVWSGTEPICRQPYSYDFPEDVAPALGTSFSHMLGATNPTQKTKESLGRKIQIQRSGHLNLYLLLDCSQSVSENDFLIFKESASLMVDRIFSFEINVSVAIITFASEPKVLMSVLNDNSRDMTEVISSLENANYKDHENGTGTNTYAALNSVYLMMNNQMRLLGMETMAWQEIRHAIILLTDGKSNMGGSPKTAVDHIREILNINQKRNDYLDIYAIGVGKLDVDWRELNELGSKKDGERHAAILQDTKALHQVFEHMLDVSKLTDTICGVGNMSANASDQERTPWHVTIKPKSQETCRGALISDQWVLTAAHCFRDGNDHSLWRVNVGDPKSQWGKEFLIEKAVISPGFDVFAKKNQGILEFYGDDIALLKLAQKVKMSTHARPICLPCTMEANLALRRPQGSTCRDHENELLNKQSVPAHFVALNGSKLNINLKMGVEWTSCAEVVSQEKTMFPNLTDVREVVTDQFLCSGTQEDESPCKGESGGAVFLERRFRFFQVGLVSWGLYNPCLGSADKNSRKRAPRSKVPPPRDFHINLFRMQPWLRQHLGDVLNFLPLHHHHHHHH

The next assay concerns the target T4, human C2 D282A (human, UniProt P06681 21-752).
T4 sequence: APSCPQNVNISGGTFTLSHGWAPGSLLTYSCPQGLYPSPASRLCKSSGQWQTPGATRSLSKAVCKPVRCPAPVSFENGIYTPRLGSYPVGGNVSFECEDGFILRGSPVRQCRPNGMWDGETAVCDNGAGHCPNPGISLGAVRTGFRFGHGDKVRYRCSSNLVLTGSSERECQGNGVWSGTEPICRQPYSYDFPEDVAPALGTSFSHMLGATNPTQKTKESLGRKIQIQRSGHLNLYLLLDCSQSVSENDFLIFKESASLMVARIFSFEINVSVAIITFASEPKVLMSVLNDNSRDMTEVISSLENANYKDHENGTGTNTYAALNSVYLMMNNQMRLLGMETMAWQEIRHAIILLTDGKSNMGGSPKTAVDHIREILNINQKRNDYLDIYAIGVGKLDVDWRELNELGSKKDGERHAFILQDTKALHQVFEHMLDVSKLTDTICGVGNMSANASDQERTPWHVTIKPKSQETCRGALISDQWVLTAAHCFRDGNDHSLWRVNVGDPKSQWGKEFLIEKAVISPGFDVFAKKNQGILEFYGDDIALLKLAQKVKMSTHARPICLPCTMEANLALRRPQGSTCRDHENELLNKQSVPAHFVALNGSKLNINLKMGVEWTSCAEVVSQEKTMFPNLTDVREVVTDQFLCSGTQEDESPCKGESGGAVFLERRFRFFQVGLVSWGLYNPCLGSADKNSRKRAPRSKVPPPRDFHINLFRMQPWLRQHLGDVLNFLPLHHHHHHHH

B1: RF16-226 (antibody, human IgG4 S228P, lambda)
heavy: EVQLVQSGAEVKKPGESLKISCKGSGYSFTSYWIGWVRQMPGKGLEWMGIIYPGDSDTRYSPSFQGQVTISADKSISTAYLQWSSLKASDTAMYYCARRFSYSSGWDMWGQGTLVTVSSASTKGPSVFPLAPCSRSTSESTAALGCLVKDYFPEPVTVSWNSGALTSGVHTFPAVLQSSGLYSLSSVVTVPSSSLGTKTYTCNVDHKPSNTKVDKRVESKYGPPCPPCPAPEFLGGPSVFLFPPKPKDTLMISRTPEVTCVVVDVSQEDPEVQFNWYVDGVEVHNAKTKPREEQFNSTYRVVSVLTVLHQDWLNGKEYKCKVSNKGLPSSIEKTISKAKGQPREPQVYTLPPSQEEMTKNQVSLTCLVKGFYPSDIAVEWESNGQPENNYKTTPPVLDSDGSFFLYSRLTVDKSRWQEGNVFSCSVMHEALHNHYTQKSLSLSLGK
light: SYELTQPPSVSVSPGQTARITCSGDALTSKYVAWYQQKSGLAPLLVIYEDTRRPSGIPAKFSGSSSGSVATLTISGAHGDDEADYYCYSTDASGHQRVFGGGTKLTVLSQPKAAPSVTLFPPSSEELQANKATLVCLISDFYPGAVTVAWKADGSPVKAGVETTKPSKQSNNKYAASSYLSLTPEQWKSHRSYSCQVTHEGSTVEKTVAPTECS
notes: pH-dependent anti-C2 antibody from a phage display library; also called WT
On to B1, for which the Kd with human C2 N327A was 0.0674 µM; with human C2 M316A, 0.0123 µM; with human C2 F437A, 0.26 µM; in the assay with human C2 D282A it was 0.0089 µM.

The term Kd denotes the equilibrium constant for the complex coming apart. Higher therefore signals weaker binding.
